According to patent EP4803139A2:

B1: 16F12, anti-PCSK9 huIgG4 (antibody, V domains shown)
VH: QVHLVESGGGVVQPGRSLRLSCAASGFTFNSFGMHWVRQAPGKGLEWVALIWSDGSDEYYADSVKGRFTISRDNSKNTLYLQMNSLRAEDTAVYYCARAIAALYYYYGMDVWGQGTTVTVSS
VL: QSVLTQPPSVSAAPGQKVTISCSGSSSNIGNNFVSWYQQLPGTAPKLLIYDYNKRPSGIPDRFSGSKSGTSATLGITGLQTGDEADYYCGTWDSSLSAYVFGTGTRVTVLQ
B2: 21B12, anti-PCSK9 huIgG4 (antibody, V domains shown)
VH: QVQLVQSGAEVKKPGASVKVSCKASGYTLTSYGISWVRQAPGQGLEWMGWVSFYNGNTNYAQKLQGRGTMTTDPSTSTAYMELRSLRSDDTAVYYCARGYGMDVWGQGTTVTVSS
VL: QSALTQPASVSGSPGQSITISCTGTSSDVGGYNSVSWYQQHPGKAPKLMIYEVSNRPSGVSNRFSGSKSGNTASLTISGLQAEDEADYYCNSYTSTSMVFGGGTKLTVLQ

Experiments:
[1] = target: human PCSK9 (proprotein convertase subtilisin/kexin type 9), wild type (human) (UniProt Q8NBP7); assay: BIAcore SPR, human PCSK9, pH 6.0
[2] = target: human PCSK9 (proprotein convertase subtilisin/kexin type 9), wild type (human) (UniProt Q8NBP7); assay: BIAcore SPR, antibody amine-coupled to CM5, PCSK9 as analyte, pH 7.4
[3] = target: human PCSK9 (proprotein convertase subtilisin/kexin type 9), wild type (human) (UniProt Q8NBP7); assay: KinExA solution equilibrium, PCSK9-coated beads
[4] = target: human PCSK9 (proprotein convertase subtilisin/kexin type 9), wild type (human) (UniProt Q8NBP7); assay: BIAcore SPR, human PCSK9, pH 7.4
[5] = target: human PCSK9 (proprotein convertase subtilisin/kexin type 9), wild type (human) (UniProt Q8NBP7); assay: BIAcore solution equilibrium assay, 21B12 immobilised on CM5, one-site fit in KinExA Pro

Binder	Kd [1] [nM]	koff [1] [s⁻¹]	kon [1] [M⁻¹ s⁻¹]	Kd [2] [nM]	Kd [3] [nM]	Kd [4] [nM]	koff [4] [s⁻¹]	kon [4] [M⁻¹ s⁻¹]	Kd [5] [nM]
B1	0.029	7.01e-05	2.39e+06	0.47	0.015	0.47	4.98e-05	106000	–
B2	0.0073	1.68e-05	2.29e+06	0.19	–	0.19	6.63e-06	34900	0.015
